T1: CD123-Fc recombinant protein (human, UniProt P26951 19-305)
T1 construct: construct not described; not shown: Fc part
T1 sequence (looked up): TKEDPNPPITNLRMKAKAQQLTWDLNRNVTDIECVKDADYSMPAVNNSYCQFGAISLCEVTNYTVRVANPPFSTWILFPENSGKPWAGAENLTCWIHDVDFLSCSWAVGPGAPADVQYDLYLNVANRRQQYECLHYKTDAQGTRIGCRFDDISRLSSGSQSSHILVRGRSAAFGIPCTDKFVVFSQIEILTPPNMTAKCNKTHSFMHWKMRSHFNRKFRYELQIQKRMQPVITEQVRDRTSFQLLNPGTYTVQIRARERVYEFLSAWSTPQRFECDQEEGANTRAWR


What was measured:
[1] = molecular target: T1, CD123-Fc recombinant protein; assay: flow cytometry of T cells electroporated with CAR mRNA, stained with CD123-Fc + PE-anti-hIgG-Fc; Mock 1.68
Description: The CD123 CAR mRNAs obtained in Example 35 above were each introduced into T cells by electroporation according to the following procedures: T cells were collected, washed with the Opti-MEM medium, and resuspended at 1×10e⁷/mL with the Opti-MEM medium; 10 μg of RNA and 100 μL of T cells were aliquoted, mixed well, and electroporated under the following parameters (BTX machine): 500 V, 0.7 ms; the cells were then transferred to a pre-warmed medium and cultured at 37° C. The binding of CD123 CART cells to the CD123-Fc recombinant protein was detected by FACS staining. […] Empty vector (Mock) was a control T cell without CAR molecule. A549 tumor cells were electroporated with different amounts of CD123 mRNA. The electroporation procedure was the same as described above, and only the parameters were changed, with the parameters 300 V, 0.5 ms used. CD123 expression in A549 tumor cells was detected by FACS staining of isotype or anti-CD123 antibodies and A549 cells electroporated with different amounts of CD123 mRNA. […] The cytotoxicity of CD123 CART cells against tumor cells was detected in an in vitro cytotoxicity assay. Tumor cells expressing EGFP or EGFP-A549 cells electroporated with different amounts of tumor antigen were seeded at 3000 cells/100 μL/well into a flat-bottom 96-well plate; CART cells were diluted to a proper concentration and seeded to the 100 μL/well tumor cells according to different E/T ratios (e.g., 10:1, 3:1, or 1:1), and the co-culture plate was placed into the IncuCyte S3 machine and scanning parameters were set. After scanning for 3 days, the total green object integrated intensity (GCU×μm²/well) was analyzed to calculate the killing efficiency.

[2] = molecular target: T2, CD28 (detection antigen of the BLI assay) (human, UniProt P10747 19-152, limits assumed); assay: BLI (GATOR); antibody loaded at 30 nM, antigen 300-37.5 nM
T2 construct: also called the antigen
Source text: The affinity kinetics of the humanized antibodies were detected using biolayer interferometry (BLI). The experimental procedures were as follows: [0533] 1. GATOR instrument was run, and the Kinetics experimental mode was selected. [0534] 2. The analysis program was run according to Table 5

Row | percent of cells in the CD123-Fc positive gate [1] [%] | Binder | also measured
1 | 93.8 | anti-CD123 scFv-C4 (scFv, On mRNA-electroporated T cells as CAR) scFv: QSALTQPPSASGTPGQRVTISCSGSSSNIGSNYVNWYQQLPGTAPKLLIYRNNQRPSGVPDRFSGSKSGTSASLAISGLRSEDEADYYCAAWDDSLSGHGVFGTGTELTVLGGGGSGGGGSGGGGSQVQLVQSGPEVKKPGASVKVSCKASGYDFIRYYMNWVRQAPGQGPEWMGAIDPSDGDTTYGQKFQGRVTLTRDTFTSTVYMELSSLRSEDTAVYYCARDWELTNSYGLDVWGQGTTVTVSS | 
2 | 94 | anti-CD123 scFv-C9 (scFv, On mRNA-electroporated T cells as CAR) scFv: QSVLTQPPSASGTPGQRVTISCSGSNSNIENNYVYWYQHLPGTAPKRLIYQNNQRPSGVPDRFSGSKSGTSASLAISGLRSEDEADYYCSAWDDSLSAWVFGGGTELTVLGGGGSGGGGSGGGGSEVHLVESGGGLVQPGRSLRLSCTASGFTFGDYAMNWVRQAPGKGLEWVGFIRSKASGGTTDYAASVKGRFTISRDDSKSIAYLQMNSLKTEDTAVYYCTRALRGYSYGLFDYWGQGTLVTVSS | 
3 | 53.6 | anti-CD123 scFv-C1 (scFv, On mRNA-electroporated T cells as CAR (hinge to CD3-zeta)) scFv: QSALTQPASVSGSPGQSITISCTGTSSDIGAYNYVSWYQQHPGKAPKLIIYDVSHRPSGVSNRFSGSKSGNTASLTISGLQSEDEADYYCSSDTNNNTLVFGVGTKLTVLGGGGSGGGGSGGGGSEVHLVESGGGVVQPGRSLRLSCAASGFTFSSYGMHWVRQAPGKGLEWVAVIWYDGSNKYYADSVKGRFTISRDNSKNTLYLQMNSLRAEDTAVYYCARDRDGFFLPMYYFDYWGQGTLVTVSS | 
4 | 84.7 | anti-CD123 scFv-C3 (scFv, On mRNA-electroporated T cells as CAR) scFv: AIQMTQSPSSLSASVGDRVTITCRASQGIGTYLAWFQQKPGKAPKSLIYAASNLQSGVPSKFSGSGSGTDFTLTISNLQPEDFATYYCQQYKGYPLTFGGGTKLEIKGGGGSGGGGSGGGGSQVQLVQSGAEVKKPGSSVKVSCKASGGTFSSYAISWVRQAPGQGLEWMGGIIPIFGTANYAQKFQGRVTITADESTSTAYMELSSLRSEDTAVYYCARDSGWFGPRYYFDYWGQGTLVTVSS | 
5 |  | huVH5huVL3 (antibody, human IgG1, kappa, V domains shown) VH: QVQLQESGPGLVKPSETLSLTCTVSGFSISDYGVHWIRQPPGKGLEWIGVIWAGGGTNYNPSLKSRVTISVDTSKNQVSLKLSSVTAADTAVYYCARDKGYSYYYSMDYWGQGTTVTVSS VL: DIQLTQSPSSLSASVGDRVTITCRASESVEYYVTSLMQWYQQKPGKAPKLLIFAASNVESGVPSRFSGSGSGTDFTLTISSLQPEDFATYYCQQSRKVPYTFGGGTKLEIKR | Kd [2]: 11.5 nM; koff [2]: 0.00101 s⁻¹; kon [2]: 87800 M⁻¹ s⁻¹
6 | 93.3 | anti-CD123 scFv-C6 (scFv, On mRNA-electroporated T cells as CAR) scFv: SYELTQPPSVSVSPGQTARIPCSGADLGDQYVSWYQHQPGQSPLLVIYEDDKRPSGIPERFSGSNSGNTATLTISGTQAMDEADYYCQAWDGNAAIFGGGTKLTVLGGGGSGGGGSGGGGSQVQLVQSGGGSVQPGGSLRLSCAASGFTFTRYSMNWVRQAPGKGLEWVSYISSSSSTIYYADSVKGRFTISRDNAKNSLYLQMNSLRDEDTAVYYCARDGYGGNSDYYGMDVWGQGTTVTVSS | 
7 | 81.7 | anti-CD123 scFv-C2 (scFv, On mRNA-electroporated T cells as CAR) scFv: QSVVTQPPSVSAAPGQKVTISCSGSSSNIGNNYVSWYQQFPGTAPKLLIYDNNKRPSGIPDRFSGSKSGTSGTLGITGLQTGDEADYYCVTWDTSLSAGVFGGGTKLTVLGGGGSGGGGSGGGGSQITLKESGGGLVKPGGSLRLSCAASGFTFSNAWMSWVRQAPGKGLEWVGRIKSKTDGGTTDYAAPVKGRFTISRDDSKNTLYLQMNSLKTEDTAVYYCTTDPHGYYYGMDVWGQGTTVTVSS | 
8 | 79.3 | anti-CD123 scFv-C5 (scFv, On mRNA-electroporated T cells as CAR; also called anti-CD123-C5) scFv: NFMLTQPHSVSESPGKTVTLSCTRSSGSIAGSYVQWYQQRPGSSPTTVIFQDNQRPSGVPDRFSGSIDKSSNSASLTISGLKTEDEADYYCQSYDSNNQVFGGGTKLTVLGGGGSGGGGSGGGGSEVHLVESGGGVVRPGGSLRLSCAASGFTFGDYGMSWVRQAPGKGLEWVSGINWNGGRTGYADSVKGRFTISRDNAKNSLYLQMNSLRAEDTALYYCARARGSGSYFGYMDVWGKGTTVTVSS | 

Source: patent US20250381223A1 (UTC THERAPEUTICS SHANGHAI, published 2025)
